The test system of data set [1] is male rats. In words: in vivo single dose biocomparability study of di-PEG G-CSF product with Neupogen and Neulasta (WBC and neutrophil counts). To be noted: single subcutaneous injection 0.1 mg/kg. How it is done: The di-PEG G-CSF product comprising a mixture of di- and di' PEG G-CSF conjugate isoforms according to the invention was tested in vivo, to show the improved activity versus unmodified G-CSF (Neupogen®) and to compare its biological activity with commercially available mono-pegylated G-CSF (Neulasta®).
The in vivo study was an open randomized, parallel- grouped single dose biocomparability study of Neupogen® and Neulasta® with the di-PEG G-CSF product. It was carried out by subcutaneously injecting 0.1 mg/kg to male rats. Six animals per group per time point were subjected to bleeding. Serum samples were subjected to a complete blood count on the same day that the samples were collected. The average white blood cell counts and neutrophil counts were calculated.

A short description of data set [2]: in vivo clearance (pharmacokinetic) studies in sham-operated and nephrectomised rats. To be noted: intravenous 0.005 mg/kg; for clearance mechanism: sham-operated and nephrectomised rats, inferred from similar kinetics. How it is done:
The clearance mechanism of (i) the Di-PEG G-CSF product mixture (43 kDa total MW) comprising di-PEG 12kDa G-CSF and […] isoforms according to example A6 and of (ii) the single isoform, Di'-PEG 20kDa G-CSF conjugate (59 kDa total MW) according to example B, was tested in vivo in comparison to commercially available mono-pegylated G-CSF (Neulasta®)
The in vivo studies were open randomized, parallel- grouped clearance studies of Neulasta® with either the Di-PEG G-CSF product mixture or the single di'-PEG 20kDa G-CSF conjugate isoform in sham-operated (control group) and nephrectomised rats. The studies were carried out by intravenous injection of 0.005 mg/kg of the conjugate to male rats. Four animals per group per time point were subjected to bleeding. The remaining G-CSF plasma concentration was determined in the serum samples and relevant pharmacokinetic data such as the plasma elimination half-life were calculated.

Data set [3] relates to male rats. In words: in vivo single dose biocomparability study of Di'-PEG 20kDa G-CSF isoform with Neupogen and Neulasta (WBC and neutrophil counts). The conditions noted are these: single subcutaneous injection 0.1 mg/kg; for average white blood cell counts (WBC) and WBC response: Figure 14; for average neutrophil counts and neutrophil response: Figure 15. The method, then: For testing the biological activity of the Di'-PEG 20kDa G-CSF conjugate isoform in vivo, the single isoform was highly purified by preparative cation exchange chromatography. The defined product contained at least 95% di'-PEG G-CSF conjugate isoform as described in example A 6, paragraph d)ii). The in vivo study was an open randomized, parallel- grouped single dose biocomparability study of Neupogen® and Neulasta® with the single di'-PEG G-CSF conjugate isoform. It was carried out by subcutaneously injecting 0.1 mg/kg to male rats. Six animals per group per time point were subjected to bleeding. Serum samples were subjected to a complete blood count on the same day that the samples were collected. The average white blood cell counts and neutrophil counts were calculated.

Setting [4] is: NE - nephrectomised rats, PK study Neulasta vs Di-PEG 12kDa G-CSF mixture.
Setting [5] is: SH - sham operated rats, PK study Neulasta vs Di-PEG 12kDa G-CSF mixture.
Where [6] appears, read: compared to unmodified G-CSF (Neupogen®).
The mark [7] stands for this setting: NE - nephrectomised rats, PK study Neulasta vs Di'-PEG 20kDa G-CSF isoform.
The mark [8] stands for this setting: SH - sham operated rats, PK study Neulasta vs Di'-PEG 20kDa G-CSF isoform.

B1: Di-PEG 12kDa G-CSF mixture (conjugate, UniProt P09919 31-207, looked up)
Granulocyte …: TPLGPASSLPQSFLLKCLEQVRKIQGDGAALQEKLVSECATYKLCHPEELVLLGHSLGIPWAPLSSCPSQALQLAGCLSQLHSGLFLYQGLLQALEGISPELGPTLDTLQLDVADFATTIWQQMEELGMAPALQPTQGAMPAFASAFQRRAGGVLVASHLQSFLEVSYRVLRHLAQP
modifications: two 12 kDa PEG chains
On to B1, for which the “average white blood cell counts (WBC)” value in the data set on male rats [1] (compared to Neulasta®, Figure 8) is “at least biosimilar, perhaps potentially better, because of slightly higher maximum WBC and neutrophil counts”. Further, the average neutrophil counts result with male rats [1] (compared to Neulasta®, Figure 9) was “at least biosimilar, perhaps potentially better, because of slightly higher maximum WBC and neutrophil counts”. Moreover, the “average white blood cell counts (WBC) and WBC response” value in the data set on male rats [1] (compared to unmodified G-CSF (Neupogen®), Figure 8) is “higher WBC and neutrophil counts and longer sustained WBC and neutrophil response”. In the data set on male rats [1] (compared to unmodified G-CSF (Neupogen®), Figure 9), the “average neutrophil counts and neutrophil response” value is “higher WBC and neutrophil counts and longer sustained WBC and neutrophil response”. In addition, the Elimination half-life in data set [2] (setting [4]) is listed as 3.4 h; in data set [2] (setting [5]) it was 2.9 h. Besides, in data set [2], the clearance mechanism entry is recorded as “predominantly cleared by Neutrophil Receptor-mediated clearance”.

B2: Di'-PEG 20kDa G-CSF isoform (conjugate, UniProt P09919 31-207, looked up)
Granulocyte …: B1 Granulocyte …
modifications: two 20 kDa PEG chains
For the molecule B2, the “average white blood cell counts (WBC) and WBC response” value with male rats [3] (compared to Neulasta®) was “bioimproved because of higher maximum WBC and neutrophil counts and its sustained WBC and neutrophil response”; in the data set with male rats [3] (setting [6]), “i) higher WBC and neutrophil counts and ii) showed a sustained WBC and neutrophil response”. Also, the “average neutrophil counts and neutrophil response” value in the data set with male rats [3] (compared to Neulasta®) is “bioimproved because of higher maximum WBC and neutrophil counts and its sustained WBC and neutrophil response”; with male rats [3] (setting [6]), “i) higher WBC and neutrophil counts and ii) showed a sustained WBC and neutrophil response”. For the same molecule, the Elimination half-life in data set [2] (setting [7]) turned out to be 3.7 h; in data set [2] (setting [8]) it was 3.3 h. In addition, in data set [2], the clearance mechanism result is “predominantly cleared by Neutrophil Receptor-mediated clearance”.

B3: Neulasta (conjugate, UniProt P09919 31-207, looked up)
Granulocyte …: B1 Granulocyte …
modifications: pegfilgrastim; N-terminal Met, 20 kDa PEG
Regarding B3, the Elimination half-life was 2.1 h in data set [2] (setting [7]), 2.5 h in data set [2] (setting [4]), 1.9 h in data set [2] (setting [8]) and 1.9 h in data set [2] (setting [5]). In data set [2], the clearance mechanism entry is reported as “predominantly cleared by Neutrophil Receptor-mediated clearance”.

These data come from patent publication EP1834963A1, “Di-polymer protein conjugates and processes for their preparation” (priority 2006, dated 2007).
